Molecular target: the molecule itself

B1: hHsp90β (protein)
chain: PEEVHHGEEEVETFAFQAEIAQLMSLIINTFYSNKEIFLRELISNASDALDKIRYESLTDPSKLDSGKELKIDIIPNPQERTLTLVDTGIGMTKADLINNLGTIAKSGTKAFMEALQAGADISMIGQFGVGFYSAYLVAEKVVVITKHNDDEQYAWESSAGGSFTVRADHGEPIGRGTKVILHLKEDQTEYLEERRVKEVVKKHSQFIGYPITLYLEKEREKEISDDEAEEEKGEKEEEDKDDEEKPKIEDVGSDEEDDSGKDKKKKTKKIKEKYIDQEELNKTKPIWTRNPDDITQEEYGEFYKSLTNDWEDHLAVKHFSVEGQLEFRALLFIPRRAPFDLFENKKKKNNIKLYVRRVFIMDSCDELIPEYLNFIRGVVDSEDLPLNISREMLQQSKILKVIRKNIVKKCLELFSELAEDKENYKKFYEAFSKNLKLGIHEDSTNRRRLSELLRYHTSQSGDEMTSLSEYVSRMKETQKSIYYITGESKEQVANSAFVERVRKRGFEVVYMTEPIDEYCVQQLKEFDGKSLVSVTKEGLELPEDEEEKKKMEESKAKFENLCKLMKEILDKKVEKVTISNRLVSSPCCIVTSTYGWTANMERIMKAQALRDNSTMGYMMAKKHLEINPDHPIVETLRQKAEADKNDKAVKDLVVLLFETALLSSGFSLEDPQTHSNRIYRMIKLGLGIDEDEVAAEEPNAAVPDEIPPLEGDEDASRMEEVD
**Q.** For B1, which Kd is on record?
**A.** ~9.5 nM
